This note sets out measurements from article PMC5170556 (Molecular Biology of the Cell, 2016).

Changes are numbered by the printed parent chain.

The labels stand for the following.
T1: Kar9 (full-length) (S. cerevisiae, UniProt P32526 1-644)
T1 sequence (looked up): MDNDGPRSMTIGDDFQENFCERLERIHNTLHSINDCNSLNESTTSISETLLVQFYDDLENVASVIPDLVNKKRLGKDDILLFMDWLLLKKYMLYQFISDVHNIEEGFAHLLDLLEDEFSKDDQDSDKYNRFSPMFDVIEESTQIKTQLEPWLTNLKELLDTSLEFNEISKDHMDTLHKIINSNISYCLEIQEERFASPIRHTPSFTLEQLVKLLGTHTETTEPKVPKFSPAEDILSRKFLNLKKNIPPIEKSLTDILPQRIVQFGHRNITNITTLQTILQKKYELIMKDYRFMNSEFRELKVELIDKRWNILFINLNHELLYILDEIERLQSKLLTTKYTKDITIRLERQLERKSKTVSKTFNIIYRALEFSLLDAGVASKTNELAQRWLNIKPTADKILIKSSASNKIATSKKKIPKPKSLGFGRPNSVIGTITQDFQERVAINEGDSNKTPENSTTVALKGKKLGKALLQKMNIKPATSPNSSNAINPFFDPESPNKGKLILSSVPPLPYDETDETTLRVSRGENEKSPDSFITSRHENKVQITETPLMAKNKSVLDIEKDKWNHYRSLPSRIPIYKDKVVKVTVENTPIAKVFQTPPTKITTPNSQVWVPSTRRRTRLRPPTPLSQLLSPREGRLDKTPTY

T2: Kar9N-Site1 (first 570 N-terminal residues of Kar9) (S. cerevisiae, UniProt P32526 1-570)
T2 sequence (looked up): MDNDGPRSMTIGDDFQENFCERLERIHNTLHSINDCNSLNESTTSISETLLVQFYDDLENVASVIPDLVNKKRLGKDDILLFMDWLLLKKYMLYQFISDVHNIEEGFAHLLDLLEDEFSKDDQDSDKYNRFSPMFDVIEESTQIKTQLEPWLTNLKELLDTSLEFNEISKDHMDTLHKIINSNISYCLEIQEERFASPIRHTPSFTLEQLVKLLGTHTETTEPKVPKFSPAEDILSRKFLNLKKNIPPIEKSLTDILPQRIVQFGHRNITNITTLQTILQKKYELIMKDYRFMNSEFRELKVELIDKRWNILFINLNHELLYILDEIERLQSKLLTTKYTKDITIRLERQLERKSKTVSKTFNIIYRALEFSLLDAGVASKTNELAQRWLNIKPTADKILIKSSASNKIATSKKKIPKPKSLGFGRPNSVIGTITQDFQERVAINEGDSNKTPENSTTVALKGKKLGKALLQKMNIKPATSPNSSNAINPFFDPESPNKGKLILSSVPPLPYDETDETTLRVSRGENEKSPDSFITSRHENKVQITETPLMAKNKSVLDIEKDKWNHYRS

T3: Kar9-GFP (S. cerevisiae, UniProt P32526 1-644)
T3 sequence (looked up): T1 sequence (looked up)

B1: GFP-tagged C-terminal domain of Bim1 (domain or fragment, S. cerevisiae, UniProt P40013 194-344, looked up)
chain: ETIGSLNEEIEQYKGTVSTLEIEREFYFNKLRDIEILVHTTQDLINEGVYKFNDETITGHGNGNGGALLRFVKKVESILYATAEGFEMNDGEDELNDKNLGEHGTVPNQGGYANSNGEVNGNEGSNHDVIMQNDEGEVGVSNNLIIDEETF
B2: C-terminal domain of Bim1 (residues 194–344) (domain or fragment, S. cerevisiae, UniProt P40013 194-344, looked up)
chain: B1 chain
B3: Bim1 (full-length) (natural protein, S. cerevisiae, UniProt P40013 1-344, looked up)
chain: MSAGIGESRTELLTWLNGLLNLNYKKIEECGTGAAYCQIMDSIYGDLPMNRVKFNATAEYEFQTNYKILQSCFSRHGIEKTVYVDKLIRCKFQDNLEFLQWLKKHWIRHKDESVYDPDARRKYRPIITNNSATKPRTVSNPTTAKRSSSTGTGSAMSGGLATRHSSLGINGSRKTSVTQGQLVAIQAELTKSQETIGSLNEEIEQYKGTVSTLEIEREFYFNKLRDIEILVHTTQDLINEGVYKFNDETITGHGNGNGGALLRFVKKVESILYATAEGFEMNDGEDELNDKNLGEHGTVPNQGGYANSNGEVNGNEGSNHDVIMQNDEGEVGVSNNLIIDEETF
B4: C-terminally green fluorescent protein–tagged Bim1 (natural protein, S. cerevisiae, UniProt P40013 1-344, looked up)
chain: B3 chain
B5: Kar9C (residues 429–644) (domain or fragment, S. cerevisiae, UniProt P32526 429-644, looked up)
chain: SVIGTITQDFQERVAINEGDSNKTPENSTTVALKGKKLGKALLQKMNIKPATSPNSSNAINPFFDPESPNKGKLILSSVPPLPYDETDETTLRVSRGENEKSPDSFITSRHENKVQITETPLMAKNKSVLDIEKDKWNHYRSLPSRIPIYKDKVVKVTVENTPIAKVFQTPPTKITTPNSQVWVPSTRRRTRLRPPTPLSQLLSPREGRLDKTPTY
B6: Kar9C-Site2mut (domain or fragment, S. cerevisiae, UniProt P32526 429-644, looked up)
chain: B5 chain with I147N, P148N
B7: Mal3 (unlabeled), Schizosaccharomyces pombe EB1 family member (natural protein, UniProt Q10113 1-308, looked up)
chain: MSESRQELLAWINQVTSLGLTRIEDCGKGYAMIQIFDSIYQDIPLKKVNFECNNEYQYINNWKVLQQVFLKKGIDKVVDPERLSRCKMQDNLEFVQWAKRFWDQYYPGGDYDALARRGNRGPANTRVMNSSAGATGPSRRRQVSSGSSTPSMTKSSANNNNVSSTANTAAVLRAKQAQQQITSLETQLYEVNETMFGLERERDFYFNKLREIEILVQTHLTTSPMSMENMLERIQAILYSTEDGFELPPDQPADLTTALTDHDTNNVAEEAQMTDLKDSETQRVPSAPDFVHARLQSLEVDDDENITF
B8: Trx-Kar9-Site3 (domain or fragment)
chain: VFQTPPTKITTPNSQVWVPSTRRRTRLRPPTPLSQLLSPREGRLDKTPTY

Data set [1] has as its target Kar9 (full-length) (S. cerevisiae) (UniProt P32526). The data set is described as follows: SEC-MALS.
The target of data set [2] is Kar9N (residues 1–429) (S. cerevisiae) (UniProt P32526). The data set is described as follows: SEC-MALS.
The target of a further data set is T1, Kar9 (full-length). Description: fluorescence correlation spectroscopy.
The data set “SEC-MALS” deals with the molecule itself. The data set is described as follows: SEC-MALS. On the technique in general: In gel filtration, larger molecules generally elute earlier.
The target in the data set “Kar9C-Site2mut” is B6. The data set is described as follows: ITC. (In general: Isothermal titration calorimetry measures the heat released or taken up as one component is titrated into another.)
The data set “Kar9C (residues 429–644)” concerns the target B5. Description: ITC.
The data set “AUC” deals with the molecule itself. The data set is described as follows: AUC.
Data set [3] deals with T2, Kar9N-Site1 (first 570 N-terminal …). The data set is described as follows: fluorescence correlation spectroscopy.
For data set [4], the target named is B2. Description: ITC.
Another data set concerns the target T3, Kar9-GFP. The data set is described as follows: in vitro microtubule-tip tracking reconstitution.

Turning to “Kar9 (full-length) (from UniProt P32526 1-644) (natural protein)”, in data set [1], the stoichiometry N – broadly, a count of units in the complex or per binding partner – stood at 2.
On to “Kar9N (residues 1–429) (from UniProt P32526 1-429) (domain or fragment)”, for which the stoichiometry N in [2] was 2.
Consider B1, for which the Kd (commonly the equilibrium constant for the complex coming apart) with Kar9 (full-length) turned out to be 4.5 nM.
As to B2, in “SEC-MALS”, the “stoichiometry N” value was found to be 2. For the same molecule, the Kd stood at 4700 nM with Kar9C-Site2mut and 9.1 nM with Kar9C (residues 429–644).
For the molecule B3, in “SEC-MALS”, the “stoichiometry N” value amounted to 2.
In the case of B4, the “stoichiometry N” value in “AUC” is 2. The Kd in data set [3] was roughly 100000 nM.
Take B5: the “stoichiometry N” value in data set [4] was determined as 0.48.
On to B6, for which, in [4], the “stoichiometry N” value was 0.74.
For B7, the binding result with Kar9-GFP was “binds”.
As to B8, in [4], binding was put at a Kd of 560 nM and the “stoichiometry N” value is 0.99.
